Measurements: patent US20160235814A1

Target: human IgG (coated on 96-well plates to form immune complexes, IC) (human)
Experiment: cell-based or functional assay

ROS production by IC-activated human neutrophils (scale: % reduction of ROS production at 0.01 mg/ml sCD32): 30
ROS production by IC-activated human neutrophils (scale: % reduction of ROS production at 0.1 mg/ml sCD32): 65
ROS production by IC-activated human neutrophils (scale: % reduction of ROS production at 0.5 mg/ml sCD32): 75
Substance: Human sCD32 (SM101), recombinant soluble human FcγRIIB (from UniProt P31994 46-221) (receptor)
